According to publication PMC12390655 (Viruses, 2025):

Experiments:
[1] = target: bipartite NLS (bpNLS) from the nucleoplasmin; test: native MS
[2] = target: eVP24–KPNA5-ΔIBB complex (human | Ebola virus) (UniProt Q05322); test: native MS
[3] = target: bipartite NLS (bpNLS) from the nucleoplasmin; test: fluorescence polarisation
[4] = target: monopartite NLS peptide (mpNLS) from the SV40 large T antigen (SV40); test: fluorescence polarisation

Question: Which results are given for “eVP24–KPNA5-ΔIBB complex (from UniProt Q05322 11-237)”?
Answer: stoichiometry N [1]: 1; stoichiometry N [2]: 2; Kd [3]: 210 nM; Kd [4]: 5200 nM
